Laboratory results from patent JP2004097211A (dated 2004).

T1: CDR1抗原ペプチド
T1 peptide: RSSKSLLYSNGNTYLY

B1: HpU−20抗体のL鎖 (protein)
VL: DVLMTQTPLSLPISLGDQASISCRSSQSIVQSNGNTYLEWYVQKPGQSPKLLIYKVSNRFSGVPDRFSGSGSGTDFTFKISRVEAEDLGVYYCIQGSHVPLTFGAGTKLELKRA
modifications: cysteines reduced with b-mercaptoethanol and alkylated with iodoacetamide (positions not stated)
B2: i41SL1−2抗体の軽鎖 (other)
VL: DIVMTQTQLTLTINIGQPASISCKSSQSLLDSDGKTYLNWLFQRPGQSPKRLIYLVSKLDSGVPDRFTGSGSGTDFTLKISRVEAEDLGVYYCWQGTHFPLTFGAGTKLELRRA
modifications: cysteines reduced with b-mercaptoethanol and alkylated with iodoacetamide (positions not stated)
B3: i41SL1−2抗体の重鎖 (other)
VH: QVQLQHSGAELVRPGSSVKVSCKALGYTSTDYEIHWVKQTPVRGLEWIGAIHPGSDVIVYNQKFKGTATLTADKSSSTAYMELRSLTSEDSAVYYCTREGGSVDYVWGQGTLVTVSA
modifications: cysteines reduced with b-mercaptoethanol and alkylated with iodoacetamide (positions not stated)

Experiments:
[1] = molecular target: ヘリコバクターピロリ菌のウレーアゼ (ヘリコバクターピロリ菌 (Helicobacter pylori)) (UniProt P14916); assay: cell-based or functional assay
CDR1抗原ペプチド = molecular target: T1, CDR1抗原ペプチド; assay: cell-based or functional assay

Row | Binder | タンパク質分解実験 (SDS-PAGE, 1 h): decrease of the β subunit band against the control [1] | 回転数(kcat) (CDR1抗原ペプチド) | 触媒効率(kcat/Km) (CDR1抗原ペプチド)
1 | B1 | 26.7% | – | –
2 | B2 | – | ~0.005 fold of trypsin (trypsin measured on another synthetic peptide) | –
3 | B3 | – | ~0.005 fold of trypsin (trypsin measured on another synthetic peptide) | ~0.1 fold of trypsin (trypsin measured on another synthetic peptide)
